Target: Recombinant human IL-21 (human, UniProt Q9HBE4 25-162)
Experiment: cell-based or functional assay

Chain of Recombinant human IL-21 (Q9HBE4 25-162 limits assumed): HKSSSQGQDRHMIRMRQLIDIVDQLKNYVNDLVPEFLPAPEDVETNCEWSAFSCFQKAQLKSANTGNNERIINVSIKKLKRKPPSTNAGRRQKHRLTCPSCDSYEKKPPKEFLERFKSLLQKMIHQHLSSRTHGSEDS

B1: Human anti-human IL-21 monoclonal antibody clone 366.328.10 (antibody, V domains shown)
VH: EVQLVESGGGLVKPGGSLRLSCAASGFIFSSYSMNWVRQAPGKGLEWVSSITSGSYYIHYADSVKGRFTISRDNAKNSLYLQMNSLRAEDTAVYYCVRERGWGYYGMDVWGQGTTVTVSS
VL: AIQLTQSPSSLSASVGDRVTITCRASQDIDSALAWYQQKPGKAPKILIHDASSLESGVPSRFSGSGSGTDFTLTISSLQPEDFATYYCQQFNSYPYTFGQGTKLEIK
For B1, the “% IgD-low, CD138+ Plasma Cells at antagonist:ligand ratio 0.16:1” value was 52.1%, the “% IgD-low, CD138+ Plasma Cells at antagonist:ligand ratio 0.6:1” value was 41.4% and the “% IgD-low, CD138+ Plasma Cells at antagonist:ligand ratio 2.5:1” value was 20.2%. For the same binder, the “% IgD-low, CD138+ Plasma Cells at antagonist:ligand ratio 10:1” value was 15.4%.

B2: Human anti-human IL-21 monoclonal antibody clone 366.552.11 (antibody, V domains shown)
VH: QVQLQESGPGLVKPSETLSLTCTVSGGSISSDFWGWIRQPPGKGLEWIGYISSRGSTNYNPSLKRRVTISVDTSRNQFSLKLSSVTAADTAVYYCARSAGVTDFDFWGQGTLVTVSS
VL: DIQMTQSPSSVSASVGDRVTITCRASQGISSWLAWYQHKPGKAPKLLIYVASSLQSGVPSRFSGSGSGTDFTLTISSLQPEDFATYYCQQANSFPLTFGGGTKVEIK
For B2, the “% IgD-low, CD138+ Plasma Cells at antagonist:ligand ratio 0.16:1 (actual 0.22:1)” value was 50.3%, the “% IgD-low, CD138+ Plasma Cells at antagonist:ligand ratio 0.6:1 (actual 0.9:1)” value was 44.8% and the “% IgD-low, CD138+ Plasma Cells at antagonist:ligand ratio 2.5:1 (actual 3.6:1)” value was 26.4%. The “% IgD-low, CD138+ Plasma Cells at antagonist:ligand ratio 10:1 (actual 14.4:1)” value was 15.4%.

B3: Heterodimeric IL-21 soluble receptor IL-21R/γc-Fc (Fc fusion, not shown: a dimerising Fc or GST)
chain 1: not shown
chain 2: LNTTILTPNGNEDTTADFFLTTMPTDSLSVSTLPLPEVQCFVFNVEYMNCTWNSSSEPQPTNLTLHYWYKNSDNDKVQKCSHYLFSEEITSGCQLQKKEIHLYQTFVVQLQDPREPRRQATQMLKLQNLVIPWAPENLTLHKLSESQLELNWNNRFLNHCLEHLVQYRTDWDHSWTEQSVDYRHKFSLPSVDGQKRYTFRVRSRFNPLCGSAQHWSEWSHPIHWGSNTSKENPFLFALEA
With B3 the “% IgD-low, CD138+ Plasma Cells at antagonist:ligand ratio 0.16:1” value was 66.7%, the “% IgD-low, CD138+ Plasma Cells at antagonist:ligand ratio 0.6:1” value was 54.2% and the “% IgD-low, CD138+ Plasma Cells at antagonist:ligand ratio 2.5:1” value was 41.7%. The “% IgD-low, CD138+ Plasma Cells at antagonist:ligand ratio 10:1” value was 23.4%.
